{
  "source": "patent US10391048B2",
  "about": "“Recombinant high-stability superoxide dismutase and application thereof” (Hangzhou Redox Pharmatech Co., Ltd., priority 2016, dated 2019)",
  "key": {"[1]": {"test_system": "copper sulfate induced zebrafish inflammation model", "test": "anti-inflammatory effect on copper sulfate-induced inflammation", "assay_type": "in vivo", "design": "numbers of neutrophils (mean ± SE): dose or concentration left out as unconfirmed", "settings": "5 hours; for Inflammation resolution rate (%): copper sulfate", "experimental": "The specific method was described by d'Alencon et al., BMCBiology.\nThe images were analyzed by Nikon NIS-ElementsD3.10 advanced image processing software."}, "[2]": {"test_system": "LPS-induced zebrafish inflammation model", "test": "anti-inflammatory effect on LPS-induced inflammation", "settings": "5 hours; for numbers of neutrophils (mean ± SE): model control 17.8", "procedure": "The zebrafish inflammation model was established by treatment of transgenic neutrophil fluorescent zebrafish through LPS injection.\nThe zebrafishes were randomly selected and put in the six-well plate, 30 per well. […] The normal control group and model control group were set at the same time. […] Image analysis was performed with Nikon NIS-Elements D3.10 advanced image processing software, the number of neutrophils (N) in zebrafish was calculated, and quantitatively analyzed. The formula of the rate of inflammation resolution was as follows:"}, "[3]": {"test_system": "tail amputation injury zebrafish inflammation", "test": "anti-inflammatory effect on inflammation of tail amputation injury", "settings": "5 hours", "procedure": "Model making: The model of zebrafish inflammation was established by mechanical amputation of tail fins of transgenic neutrophil fluorescent zebrafish.\nThe transgenic neutrophil fluorescent zebrafish were randomly selected and put in the six-well plate after mechanical amputation of tail fins, 30 per well. […] The normal control group and model control group were set at the same time. […] Image analysis was performed with Nikon NIS-Elements D3.10 advanced image processing software, the number of neutrophils (N) in zebrafish was calculated, and quantitatively analyzed. The formula of the rate of inflammation resolution was as follows:"}, "[4]": {"test_system": "TNBS-induced colonitis zebrafish model", "test": "pathological analysis of intestinal tract tissue", "assay_type": "in vivo", "settings": "15 μg/mL, 48 hours", "excerpt": "The fixed zebrafish was observed under the microscope for the colonic tissue and photographed for histopathological analysis, as described in the experimental results."}, "[5]": {"test_system": "TNBS-induced colonitis zebrafish model", "test": "inflammation resolution of TNBS-induced colonitis (intestinal neutrophils)", "settings": "intestinal tract, 48 hours, model control 9.4, normal control 1.6", "procedure": "Transgenic neutrophil fluorescent zebrafish of 3 days after fertilization was used to establish a zebrafish colonitis model after incubation for 48 h in water for fish containing a final concentration of 4.5 μM TNBS.\nModel control group: TNBS-induced colonitis zebrafish model (model 2);\nPositive control group: prednisone was added to water for fish at a final concentration of 15 μg/mL;\n30 transgenic neutrophil fluorescent zebrafishes were treated in each experiment group for 48 hours;"}, "[6]": {"test": "stability of SOD at different pH", "assay_type": "physicochemical", "settings": "pH 12", "procedure": "(§1) The enzyme activity of SOD was determined by pyrogallol autoxidation method."}, "zebrafish [7]": {"test_system": "zebrafish", "test": "maximum non-lethal concentration (MNLC), 48 h treatment", "assay_type": "in vivo", "settings": "for Death rate (%) / Death (tail): 48 hours; for Death (tail): 30 zebrafish", "experimental": "30 zebrafishes were treated in each experiment group;\nDuring the experiment course, count dead zebrafish every day and remove dead zebrafish;"}, "[8]": {"settings": "1 h", "procedure": "as §1"}, "zebrafish [9]": {"test_system": "zebrafish", "test": "maximum non-lethal concentration (MNLC), 5 h treatment", "assay_type": "in vivo", "settings": "2000 μg/mL for 5 hours", "experimental": "30 zebrafishes were treated in each experiment group. During the course of the experiment, the dead zebrafishes were counted and removed. After the M-type SOD treatment, the number of dead zebrafishes in each experiment group was counted, and MNLC was determined. […] Therefore, the concentration of 2000 μg/mL was selected as the maximum concentration in the evaluation of anti-inflammatory effect of SOD."}, "[10]": {"test_system": "TNBS-induced colonitis zebrafish model", "test": "therapeutic efficiency on TNBS-induced colonitis (intestinal lumen area)", "assay_type": "in vivo", "settings": "48 hours, model control 197660, normal control 130711", "experimental": "(Please refer to A. Jemal, R. Siegel, J. Xu, et al. Ward. Clinicians, 2010, 277-300, and Intestinal Upregulation of Melanin-Concentrating Hormone in TNBS-Induced Enterocolitis in Adult Zebrafish. Plos One, 2013, 8(12):1524-1528).\nImage analysis was performed by image analysis software, the area of zebrafish intestinal lumen was calculated, and quantitative analysis was carried out, and the statistical result was expressed with X±SE:\nThe therapeutic efficiency of the positive control group was calculated by replacing the treatment group in the above formula with the positive control group;"}},
  "note": "Several values for one entry are separate records, joined by “and”; a condition that tells them apart may be missing. Equal entries are not always repeated. Marks after values point to notes of the source that are not given here.",
  "data": [
    {"molecule": "COc1ccc2c(c1)c(CC(=O)O)c(C)n2C(=O)c1ccc(Cl)cc1", "note": "[indometacin, reference compound]", "values": [
      {"measurement": "Inflammation resolution rate (%)", "setting": "[1]; 60 μM", "value": "88*** %"},
      {"measurement": "Inflammation resolution rate (%)", "setting": "[2]; 60 μM", "value": 72, "unit": "%"},
      {"measurement": "Inflammation resolution rate (%)", "setting": "[3]; 60 μM", "value": 62, "unit": "%"}
    ]},
    {"molecule": "C[C@]12C=CC(=O)C=C1CC[C@@H]1[C@@H]2C(=O)C[C@@]2(C)[C@H]1CC[C@]2(O)C(=O)CO", "note": "[prednisone, reference compound]", "values": [
      {"measurement": "intestinal histopathology", "setting": "[4]", "value": "intestinal mucosal histology was improved significantly"}
    ]},
    {"molecule": "M-type SOD: mutant high temperature resistant superoxide dismutase, amino acid sequence SEQ ID NO. 4; position 202 mutated from lysine to asparagine versus W-type SOD (protein, amino acid sequence of M-type SOD, position 202 mutated from lysine to asparagine versus W-type SOD) MPYPFKLPDLGYPYEALEPHIDAKTMEIHHQKHHGAYVTNLNAALEKYPYLHGVEVEVLLRHLAALPQDIQTAVRNNGGGHLNHSLFWRLLTPGGAKEPVGELKKAIDEQFGGFQALKEKLTQAAMGRFGSGWAWLVKDPFGKLHVLSTPNQDNPVMEGFTPIVGIDVWEHAYYLKYQNRRADYLQAIWNVLNWDVAEEFFNKA", "values": [
      {"measurement": "number of neutrophils (mean ± SE)", "setting": "[5]; 15 μg/mL", "value": "6.8 ± 0.88"},
      {"measurement": "number of neutrophils (mean ± SE)", "setting": "[5]; 50 μg/mL", "value": "5.6 ± 0.45"},
      {"measurement": "number of neutrophils (mean ± SE)", "setting": "[5]; 150 μg/mL", "value": "3.7 ± 0.53"},
      {"measurement": "activity kept", "setting": "[6]", "value": 97, "unit": "%"},
      {"measurement": "Death rate (%)", "setting": "zebrafish [7]; 150 μg/mL", "value": 0, "unit": "%"},
      {"measurement": "Death (tail)", "setting": "zebrafish [7]; 150 μg/mL", "value": 0, "unit": "tail"},
      {"measurement": "Death rate (%)", "setting": "zebrafish [7]; 200 μg/mL", "value": 20, "unit": "%"},
      {"measurement": "Death (tail)", "setting": "zebrafish [7]; 200 μg/mL", "value": 6, "unit": "tail"},
      {"measurement": "Death rate (%)", "setting": "zebrafish [7]; 330 μg/mL", "value": 100, "unit": "%"},
      {"measurement": "Death (tail)", "setting": "zebrafish [7]; 330 μg/mL", "value": 30, "unit": "tail"},
      {"measurement": "Death rate (%)", "setting": "zebrafish [7]; 1000 μg/mL", "value": 100, "unit": "%"},
      {"measurement": "Death (tail)", "setting": "zebrafish [7]; 1000 μg/mL", "value": 30, "unit": "tail"},
      {"measurement": "Death rate (%)", "setting": "zebrafish [7]; 3000 μg/mL", "value": 100, "unit": "%"},
      {"measurement": "Death (tail)", "setting": "zebrafish [7]; 3000 μg/mL", "value": 30, "unit": "tail"},
      {"measurement": "MNLC", "setting": "zebrafish [7]; zebrafish, treatment for 48 hours", "value": 150, "unit": "µg/mL"},
      {"measurement": "thermal stability (remaining enzyme activity)", "setting": "[8]", "value": "maintained extremely high stability within a wider temperature range"},
      {"measurement": "resistance against pepsin degradation", "setting": "pepsin", "value": "significantly better than ordinary SOD"},
      {"measurement": "numbers of neutrophils (mean ± SE)", "setting": "[1]; model control 15.5", "value": "14.9 and 14.9 ± 0.6"},
      {"measurement": "Inflammation resolution rate (%)", "setting": "[1]; 15 μg/mL", "value": 4, "unit": "%"},
      {"measurement": "Inflammation resolution rate (%)", "setting": "[1]; 50 μg/mL", "value": 24, "unit": "%"},
      {"measurement": "Inflammation resolution rate (%)", "setting": "[1]; 150 μg/mL", "value": 47, "unit": "%"},
      {"measurement": "Inflammation resolution rate (%)", "setting": "[1]; 450 μg/mL", "value": 77, "unit": "%"},
      {"measurement": "Inflammation resolution rate (%)", "setting": "[1]; 1350 μg/mL", "value": 91, "unit": "%"},
      {"measurement": "Inflammation resolution rate (%)", "setting": "[1]; 2000 μg/mL", "value": 92, "unit": "%"},
      {"measurement": "Inflammation resolution rate (%)", "setting": "[2]; 15 μg/mL", "value": 0, "unit": "%"},
      {"measurement": "numbers of neutrophils (mean ± SE)", "setting": "[2]; 15 μg/mL", "value": "17.7 and 17.7 ± 1.4"},
      {"measurement": "Inflammation resolution rate (%)", "setting": "[2]; 50 μg/mL", "value": 16, "unit": "%"},
      {"measurement": "numbers of neutrophils (mean ± SE)", "setting": "[2]; 50 μg/mL", "value": "14.9 and 14.9 ± 1.0"},
      {"measurement": "Inflammation resolution rate (%)", "setting": "[2]; 150 μg/mL", "value": 31, "unit": "%"},
      {"measurement": "Inflammation resolution rate (%)", "setting": "[2]; 450 μg/mL", "value": 34, "unit": "%"},
      {"measurement": "Inflammation resolution rate (%)", "setting": "[2]; 1350 μg/mL", "value": 58, "unit": "%"},
      {"measurement": "Inflammation resolution rate (%)", "setting": "[2]; 2000 μg/mL", "value": 65, "unit": "%"},
      {"measurement": "intestinal histopathology", "setting": "[4]; 50 μg/mL and 150 μg/mL", "value": "the inflammation of intestinal mucosa was significantly improved"},
      {"measurement": "toxic effects on zebrafish", "setting": "zebrafish [9]", "value": "no toxic effects"},
      {"measurement": "intestinal lumen area (mean ± SE)", "setting": "[10]; 15 μg/mL in water for fish", "value": "153560 ± 6080"},
      {"measurement": "intestinal lumen area (mean ± SE)", "setting": "[10]; 50 μg/mL in water for fish", "value": "142595 ± 3167"},
      {"measurement": "intestinal lumen area (mean ± SE)", "setting": "[10]; 150 μg/mL in water for fish", "value": "141259 ± 5359"},
      {"measurement": "Inflammation resolution rate (%)", "setting": "[3]; 150 μg/mL", "value": 29, "unit": "%"},
      {"measurement": "Inflammation resolution rate (%)", "setting": "[3]; 450 μg/mL", "value": 51, "unit": "%"},
      {"measurement": "Inflammation resolution rate (%)", "setting": "[3]; 1350 μg/mL", "value": 58, "unit": "%"},
      {"measurement": "Inflammation resolution rate (%)", "setting": "[3]; 2000 μg/mL", "value": 59, "unit": "%"}
    ]}
  ]
}
